The source of these data is patent US20130195884A1, “NOVEL MODULATORS OF TRAIL SIGNALLING” (Deutsches Krebsforschungszentrum, priority 2009, published 2013).

The test system of series [1] is freshly isolated human hepatocytes. The note with it: cited from earlier work.
For series [2] the following is noted: cited from earlier work.
The test system of series [3] is low-grade Non-Hodgkin Lymphoma (NHL). To be noted: combination with rituximab, phase Ib, cited from earlier work.
The next series relates to HeLa cells. Kind of series: Titration of TRAIL-induced apoptosis, cell viability by ATP quantification (CellTiterGlo). It is filed as cell-based, human. On the procedure: FIG. 2: Titration curve for TRAIL-induced apoptosis. HeLa cells were stimulated with 0.001 to 1000 ng/ml TRAIL, followed by analysis of cell viability by the quantification of ATP (CelliterGlo® assay).
FIG. 5. TRAIL-induced cell death in HeLa cells can be rescued by siRNAs. (A) TRAIL induces apoptosis in HeLa cells. Membrane blebbing was observed after 1-2 hours and a complete loss of viable cells was detected after 24 hours. (B) The killing activity of TRAIL in HeLa cells is concentration dependent. (C) Silencing the TRAIL-R1 receptor and caspase-8 with siRNAs, rescued the apoptotic effect to 70% and 100% viability of untreated cells, respectively.
Cell viability was quantified by the measurement of ATP (CeIlTiterGlo® Luminescent Cell Viability Assay) or the quantification of mitochondrial activity (MTT assay). CellTiterGlo® Luminescent Cell Viability Assay was performed according to manufacturer's instructions. Briefly, 24 h after TRAIL treatment, CellTiterGlo® reagent was added to the medium. After mixing and shaking for 2 min, the luminescent signal was measured using Mithras LB 940 (Berthold Technologies, Bad Wildbad, Germany).
To determine the exact sensitivity to TRAIL-induced apoptosis, a dose-response curve ranging from 0.01 to 1000 ng/ml TRAIL was performed. Cell viability was quantified 24 h later by the CellTiterGlo® assay as this method is very sensitive, reproducible and applicable for high-throughput approaches. […] Maximum cell death is reached at TRAIL concentrations around 100 ng/ml (cf. FIG. 2).
The death-inducing ligand TRAIL triggers apoptosis in HeLa cells shortly after application (FIG. 5 A). During this process, the cytoplasm shrinks, the DNA condensates and the cell membrane starts blebbing, releasing fragments of the cell in a controlled manner (reviewed in Yasuhara 2007). […] This process was also monitored with a cell-based viability assay, quantifying cellular ATP-levels. TRAIL induced cell death in HeLa cells in a dose-dependant manner (FIG. 5 B).
A general note: Cellular ATP, detected with luciferase, serves as a proxy for viable cell number.

“HIS-TRAIL: soluble TRAIL with an N-terminal polyhistidine tag”: the “Toxicity on freshly isolated human hepatocytes” value in series [1] is listed as “considerable toxicity”.
As for “rhApo2L/TRAIL: untagged version of recombinant soluble TRAIL, co-developed by Genentech and Amgen”, the “Toxicity in patients receiving the single agent” value in series [2] is on record as “no dose-limiting toxicity (DLT) or severe adverse effects (SAEs)”. The “Serious adverse events of the combination” value in series [3] is recorded as “two SAEs possibly related to the combination”. Moreover, the Tumor response assessment entry in series [3] (eight patients with low-grade NHL) is “two showed complete response, one a partial response and five stable disease”.

B1: TRAIL: death-inducing ligand, recombinant TRAIL used to trigger apoptosis in HeLa cells (protein, UniProt P50591 1-281, looked up)
Tumor necrosis factor ligand …: MAMMEVQGGPSLGQTCVLIVIFTVLLQSLCVAVTYVYFTNELKQMQDKYSKSGIACFLKEDDSYWDPNDEESMNSPCWQVKWQLRQLVRKMILRTSEETISTVQEKQQNISPLVRERGPQRVAAHITGTRGRSNTLSSPNSKNEKALGRKINSWESSRSGHSFLSNLHLRNGELVIHEKGFYYIYSQTYFRFQEEIKENTKNDKQMVQYIYKYTSYPDPILLMKSARNSCWSKDAEYGLYSIYQGGIFELKENDRIFVSVTNEHLIDMDHEASFFGAFLVG
As to B1, the “Membrane blebbing observed after” value with HeLa cells (HeLa cells after addition of TRAIL) is 1 to 2 h. Besides, in the series on HeLa cells (HeLa cells, 100 ng/ml recombinant TRAIL, 24 hours), the “Viable cells left after TRAIL treatment” value is given as “no viable cells were left”. For the same molecule, the “TRAIL concentration at which maximum cell death is reached” value with HeLa cells (HeLa cells, dose-response 0.01 to 1000 ng/ml TRAIL, viability after 24 h, CellTiterGlo) is “around 100 ng/ml”.
